The values below come from PMC6853979, “Structures of GapR reveal a central channel which could accommodate B-DNA”.

Series [1] addresses GapR (full length, Caulobacter crescentus) (Caulobacter crescentus). The series can be described thus: crystal structure; GapR or GapRΔ1-11 crystallised with 19-bp dsDNA (DNA not seen in the maps), sitting drop, room temperature, ammonium sulfate and PEG 3350; tetramer formed by crystallographic symmetry.
Series [2] shares this target. Nature of the series: SEC-MALS; 50 μl of GapR at 0.5 mM (calculated as tetramer), no DNA, Superdex-200 Increase 10 300 GL, SEC buffer (20 mM HEPES pH 7.4, 200 mM NaCl, 0.2 mM TCEP).
Series [3] has the same target. Nature of the series: SEC; 6.25 μM protein (calculated as tetramer); GapR without and with 20 μM 19 bp DNA on Superdex 200 Increase 10 300 GL; GapR and GapR6KtoE on HiLoad 16/600 Superdex 200 pg against protein standards.
Series [4] deals with GapRΔ1-11 (Caulobacter crescentus). The series can be described thus: crystal structure; GapR or GapRΔ1-11 crystallised with 19-bp dsDNA (DNA not seen in the maps), sitting drop, room temperature, ammonium sulfate and PEG 3350; tetramer formed by crystallographic symmetry.
In a further series the target is T1, GapR (Caulobacter crescentus, UniProt Q9A385 1-89).
T1 sequence: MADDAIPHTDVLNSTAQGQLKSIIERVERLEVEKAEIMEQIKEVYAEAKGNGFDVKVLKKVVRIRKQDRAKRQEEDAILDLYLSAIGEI
Nature of the series: EMSA; 0.425 uM tetramer, 1.7 uM DNA; EMSA: 10 mM Tris pH 7.5, 50 mM NaCl, 1 mM EDTA; 8% gel in 0.5x TBE pH 8.3 at 4 C. The conditions noted are these: protein: recombinant; tags: N-terminal His8 cleaved by TEV (vector residues may remain); chain copies: 4; blunt. In general terms: Mobility shift assays separate free from complexed probe on a gel.

As a reminder, the stoichiometry N is a count of units in the complex or per binding partner. Turning to “GapR (full length, Caulobacter crescentus) (natural protein)”, the stoichiometry N in series [1], in series [2] and in series [3] was 4 throughout.
In the case of GapRΔ1-11 (domain or fragment), the stoichiometry N in series [4] stood at 4.

B1: 19 bp oligonucleotide (19mer) (dsDNA)
DNA 1: GTTAAGCAACCGTTAACGG
DNA 2: CCGTTAACGGTTGCTTAAC
Take B1: the binding result with GapR is “binds”.
